The values that follow come from patent US20250049939A1, “NOVEL FLT3 ANTIBODIES AND ANTIBODY-DRUG-CONJUGATES BASED THEREON, THERAPEUTIC METHODS AND USES THEREOF IN COMBINATION WITH TYROSINE KINASE INHIBITORS” (TUBULIS GmbH, priority 2021, published 2025).

The assay has as its target human CD64 (high affinity Fc receptor, FCGR1) on cells (human) (UniProt P12314). As to the kind of experiment: cell-based or functional assay.

human CD64 (high affinity Fc receptor, FCGR1) on cells (human), sequence (P12314 16-374): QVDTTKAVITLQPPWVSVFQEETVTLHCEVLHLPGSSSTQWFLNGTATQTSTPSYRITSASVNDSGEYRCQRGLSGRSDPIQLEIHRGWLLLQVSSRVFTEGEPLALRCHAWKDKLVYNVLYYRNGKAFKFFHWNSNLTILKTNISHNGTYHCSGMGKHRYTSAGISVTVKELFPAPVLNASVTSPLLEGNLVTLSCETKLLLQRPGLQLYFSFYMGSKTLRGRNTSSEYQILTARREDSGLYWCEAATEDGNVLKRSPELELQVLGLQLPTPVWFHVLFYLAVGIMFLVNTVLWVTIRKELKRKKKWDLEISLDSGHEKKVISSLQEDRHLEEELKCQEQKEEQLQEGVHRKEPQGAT

The substance “IgG1-ADC (palivizumab conjugated to MMAF) (antibody)” registered an IC50 of cytotoxicity in Ba/F3-pMIY-CD64 cells of 31.8 ng/ml; an IC50 of cytotoxicity in Ba/F3 cells expressing both FLT3 and CD64 of 78.3 ng/mL; an IC50 of cytotoxicity in CD64 positive leukemia and lymphoma cell lines of 12.8 to 2000 ng/mL.
